Values quoted from earlier work as cited in PMC11381654.

Biological target: IL-4Rα (Homo sapiens) (UniProt P24394)

Kd: 0.033 nM
Substance: dupilumab
